In patent US11160888B2, “PET tracer for imaging of neuroendocrine tumors” (priority 2011, dated 2021):

Columns and labels:
[1] = in vivo
[2] = human, in vivo
From the text: No additional radiochemical purification step was required. […] The mean administered activity was 207 6 10 MBq (range, 193-232 MBq). […] This side effect was probably due to the somatostatin analog contained in the tracer.

[3] = 64Cu-DOTATATE PET biodistribution by SUV quantitation in neuroendocrine tumor patients; settings: both, human, pituitary, adrenals, spleen, iv, 200 MBq, total radioactivity
From the text: (§1) Fourteen consecutively enrolled patients participated in this pilot study and underwent PET scanning with the new tracer on several time points. Patients were eligible in case of a histopathologically confirmed neuroendocrine tumor including positive immunostainings for chromogranin A and synaptophysin. They got offered study inclusion in case of referral to conventional SRI as part of routine follow-up. The maximum allowed time interval between both imaging modalities was 60 days. According to local clinical routine there was no need for interruption of biotherapy e.g. withdrawal of long- or short-time acting somatostatin analogs. However, patients must not have undergone major surgical interventions or systemic chemotherapy between conventional SRI and the PET scanning. The study group consisted of thirteen patients with gastroenteropancreatic neuroendocrine tumors (2 foregut, 6 midgut, 5 NET of unknown origin) and one patient with a known mutation in the multiple endocrine neoplasia I gene, who was diagnosed with a bronchogenic NET ten years ago. Age ranged from 40-80 years. Gender distribution: four women, ten men. Ten of the tumors were active functioning causing classical carcinoid syndromes mainly due to hepatic tumor load. One patient had shown clinical and biochemical manifestations of a Zollinger-Ellison syndrome at time of diagnosis. Twelve patients were in advanced disease state—TNM stage IV according to most recently both UICC/AJCC and ENETS classifications. Two patients had undergone respectively R0- and R1-resections, both without detectable disease so far. Patient recruiting and follow-up was carried out at the Department of Abdominal Surgery C. SRI was performed at the Department of Clinical Physiology, Nuclear Medicine and PET. Both departments are part of the Neuroendocrine Tumor Center of Excellence, Rigshospitalet, University of Copenhagen, Denmark. All patients had given written informed consent prior to inclusion. The study was approved by the Danish Medicines Agency and the Regional Research Ethics Committee.
(§2) PET-CT images were acquired on an integrated PET-CT Siemens Biograph True X, multi-slice. […] Imaging was performed 1h, 3h and 24h after injection.
(§3) Planar whole-body scans/SPECT-CT and PET-CT images were evaluated by two separate teams consisting of both a nuclear medicine physician and a radiologist. Both teams were briefed about the patients past medical history. When abnormal findings only detected on co-registered CT had led the attention to a specific anatomical site, this particular region was revaluated using the molecular imaging data. Judged visually, there also had to be clearly detectable lesion to be accounted as true SRI positive as this was the main focus of interest of the present study. However, all lesions were documented, whether identified on CT images or by SRI. Findings were reported according to their respective anatomical site and if possible absolute numbers of lesions per organ system. […] While still remaining blinded to the opposite SRI results, this disparity was tried to balance by additionally providing the team evaluating ^111In-pentreotide SPECT-CT scans with the findings from contrast enhanced diagnostic CT. Interpretation of conventional SRI was performed based on the knowledge of normal tissue accumulation of ^111In-pentreotide. Interpretation of the findings from the new PET method was carried out in a similar manner being aware of possible differences regarding residence times and excretion patterns of the new tracer. Confirmation of the pointed-out lesions was sought by routine follow-up including CT, MRI, conventional SRI and biopsy if possible. Newly detected lesions on co-registered CT imaging were accepted for confirmations as well. Semi-quantitative analysis of tissue radioactivity concentrations was performed by drawing volumes of interests (VOI) around detected lesions and encompassing normal tissues with appreciable tracer uptake on fused PET-CT images.

somatostatin receptor = test: as above
From the text: as §1, §2, §3

neuroendocrine tumor = test: Comparative lesion detection, 64Cu-DOTATATE PET versus 111In-DTPA-octreotide SPECT; format: in vivo, human
From the text: as §1, §2
^111In-pentreotide was intravenously applied with a target dose of 200 MBq. The scans consisted of whole body planar scintigraphy and SPECT-CT: Planar images were acquired at 24 h (anterior and posterior whole-body scan, scan speed 5 cm/min, 512*1.024 matrix) and at 48 h (15 min static planar image (256*256 matrix) of the abdomen using a large field of view medium-energy collimator (Precedence 16-slice scanner, Philips Healthcare; VG Hawkeye, GE Healthcare). SPECT (20 sec/step, 128 angles, 128*128 matrix) over the abdomen was obtained at 24 or 48 h, and included also the chest if a pathological focus was suspected from the whole body scan. A low-dose CT was used as anatomical guide and for attenuation correction. SPECT and CT were fused and reviewed on dedicated workstations (EBW, Philips Healthcare; eNTEGRA, GE Healthcare).
Planar whole-body scans/SPECT-CT and PET-CT images were evaluated by two separate teams consisting of both a nuclear medicine physician and a radiologist. Both teams were briefed about the patients past medical history. When abnormal findings only detected on co-registered CT had led the attention to a specific anatomical site, this particular region was revaluated using the molecular imaging data. Judged visually, there also had to be clearly detectable lesion to be accounted as true SRI positive as this was the main focus of interest of the present study. However, all lesions were documented, whether identified on CT images or by SRI. Findings were reported according to their respective anatomical site and if possible absolute numbers of lesions per organ system.

CC(O)[C@H](NC(=O)[C@@H]1CSSC[C@H](NC(=O)[C@@H](Cc2ccccc2)NC(=O)CN2CCN(CC(=O)O)CCN(CC(=O)O)CCN(CC(=O)O)CC2)C(=O)N[C@@H](Cc2ccc(O)cc2)C(=O)N[C@H](Cc2c[nH]c3ccccc23)C(=O)N[C@@H](CCCCN)C(=O)N[C@@H](C(C)O)C(=O)N1)C(=O)O (stereo partly shown) [64Cu-DOTATATE, metal not drawn]
absorbed dose [1]: 0.19 mGy/MBq | estimated effective dose [1]: 6.3 mSv | adverse or clinically detectable pharmacologic effects [2]: no adverse or clinically detectable pharmacologic effects | changes in vital signs [2]: No significant changes | subjects who experienced self-limiting nausea [2]: 4 subjects | SUV [3]: ≤ 20 SUV | activity distribution on late scan (somatostatin receptor; 24 h after injection): activity washout from most organs and lesions | SUVmax range (somatostatin receptor; bone lesions, 1 h): 30-117 | SUVmax range (somatostatin receptor; bone lesions, 3 h): 27-111 | tracer accumulation category (high, moderate, faint) (somatostatin receptor; liver and spleen): Moderate to high | SUVmax range (somatostatin receptor; liver lesions, 1 h): 20-81 | SUVmax range (somatostatin receptor; liver lesions, 3 h): 26-81 | SUVmax range (somatostatin receptor; lymph nodes (lesions), 1 h): 9-110 | SUVmax range (somatostatin receptor; lymph nodes (lesions), 3 h): 9-115 | tracer accumulation category (high, moderate, faint) (somatostatin receptor; pituitary, adrenal glands, kidneys, renal pelvis, urinary bladder): High | tracer accumulation category (high, moderate, faint) (somatostatin receptor; salivary glands, in 12 of 14 patients): faint to moderate | tracer accumulation category (high, moderate, faint) (somatostatin receptor; thyroid gland, in 2 patients): moderate | image quality compared with SPECT with 111In-DTPA-octreotide (neuroendocrine tumor; PET): considerably better image quality | number of lymph node lesions revealed (neuroendocrine tumor; all 14 patients): 98 | Number and localization of lesions detected (neuroendocrine tumor; patient no. 2): Negative | Number and localization of lesions detected (neuroendocrine tumor; patient no. 4): Negative | Number and localization of lesions detected (neuroendocrine tumor; patient no. 5): Lymph nodes (>30) | Number and localization of lesions detected (neuroendocrine tumor; patient no. 7): Pancreas (1), liver (>10) bones (>10) | Number and localization of lesions detected (neuroendocrine tumor; patient no. 10): Lymph nodes (10) | Number and localization of lesions detected (neuroendocrine tumor; patient no. 11): Liver (>10)
